The numbers were not newly measured in patent publication US7276335B1, “Designing compounds specifically inhibiting ribonucleic acid function” (Massachusetts Institute of Technology, priority 1993, dated 2007), which cites them from elsewhere.

In one data set the test system is eukaryotic 28 S rRNA. The following applies: cleaves one phosphodiester bond on the 3′ side of G-4325.
Data set [1] deals with normal cells as well as tumor cells. The following applies: too toxic for use clinically to treat tumors.

B1: α-sarcin: cytotoxic protein with potent antisarcoma activity, isolated from a mold, that inactivates ribosomes by cleaving the rRNA (protein, UniProt P00655 28-177, looked up)
Ribonuclease alpha-sarcin: AVTWTCLNDQKNPKTNKYETKRLLYNQNKAESNSHHAPLSDGKTGSSYPHWFTNGYDGDGKLPKGRTPIKFGKSDCDRPPKHSKDGNGKTDHYLLEFPTFPDGHDYKFDSKKPKENPGPARVIYTYPNKVFCGIIAHTKENQGELKLCSH
As to B1, in the data set with sarcoma, the antisarcoma activity entry was “potent antisarcoma activity”. In the data set with eukaryotic 28 S rRNA, the “inactivation of ribosomes by rRNA cleavage” value was “inactivates ribosomes by cleaving the rRNA”. Further, in data set [1], the toxicity to cells result is on record as “highly toxic to normal cells as well as tumor cells”.
